This series can be described thus: yeast display, Sf9 membrane polyspecificity reagent, FACS + sequencing; frameworks hold sequencing errors. Put shortly:
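Sorting gates, low and high (top ~1%), were placed on anti-HA fluorescence to track expression and on streptavidin fluorescence to track reagent binding. A clone's polyreactivity label is taken from the gate it came out of. The reagent was 10% biotinylated, detergent-solubilized Sf9 membrane, applied for 1 hour at 4 °C to galactose-induced yeast display cells.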
Regarding “QVQLVESGGGLVQAGGSLRLSCAASGGTISYYAMGRYRQAPRKERELVAAINWSGASTYYADSVKGRFTNSRDNAKYTVYLELNSLKPEETAVYYCAADSIQYTARPYDYWGQGTQVTVSS”, the “polyreactivity (PSR sort gate)” value is “low polyreactivity”.

Regarding “QVQLVESGGGLVQAGGSLRLSCAASGGTIVGYAMGWYRQAPGKERELVAAIDSSGGSTYYADSVKGRFTISRDNAKNTVYLQMNSLKPEDTAVYYCAALSTNYYISPYYYYNSKGYDYWGQGTQVTVSS”, the “polyreactivity (PSR sort gate)” value is listed as “high polyreactivity”.

Consider “QVQLVESGGGLVQAGGSLRLSCAASGGTIYDNTMGWYRQAPGKERELVAAISRDGSTNYADSVKGRFTISRDNAKNTVYLQMNSLKPEDTAVYYCNKDPVSEYRSPGFPVTYDYWGQGTQVTVSS”, for which the “polyreactivity (PSR sort gate)” value is listed as “low polyreactivity”.

As for “QVQLVESGGGLVQAGGSLRLSCAASGGTLFTNAMGWYRQAPGKERELVAAISWRGGRTYYADSVKGRFTISRDNAKNTVYLQMNSLKPEDTAVYYCAAASAAGYDYWGQGTQVTVSS”, the “polyreactivity (PSR sort gate)” value was “low polyreactivity”.

Consider “QVQLVESGGGLVQAGGSLRLSCAASGGTLQGNAMGWYRPAPGKERELVAAISSRGGRTYYADSVKGRFTSSRDNAKNTVYLQMNSLKPEDTAVYYCNAEYPVYFEGYPYYWDYWGDSWGQGTQVTVSS”, for which the “polyreactivity (PSR sort gate)” value is “high polyreactivity”.

For the sequence “QVQLVESGGGLVQAGGSLRLSCAASGGTLQGNAMGWYRQAPGKERELVAAISSRGGRTYYADSVKGRFTISRDNAKNTVYLQMNSLKPEDTAVYYCAAVQKGDSTLLRTKGGYWGQGTQVTVSS”, the “polyreactivity (PSR sort gate)” value is given as “high polyreactivity”.

Take “QVQLVESGGGLVQAGGSLRLSCAASGGTLVRYAMGWYRQAPGKERELVAAIDRDGDSTYYADSVKGRFTISRDNAKNTVYLQMNSLKPEDTAVYYCNADEIRQTDGYDYWGQGTQVTVSS”: the “polyreactivity (PSR sort gate)” value is recorded as “high polyreactivity”.

Consider “QVQLVESGGGLVQAGGSLRLSCAASGGTLYTYAMGWYRQAPGKEWEFVAAITVSGGRTYYADSVKGRFTISRDNAKNTVYLLMNSLKPEDTAVYYCAARYWSWRSFKVDYWGQGTQVTVSS”, for which the “polyreactivity (PSR sort gate)” value is “high polyreactivity”.

Turning to “QVQLVESGGGLVQAGGSLRLSCAASGGTMLYYAMGWYRQAPRKEMELVAVITSSAGRTYYADSVKGRITISRDNAKITVYLLMNSLKPEDTAVSYCNATGYLVGSISIYDYWGQGTQVTVSS”, the “polyreactivity (PSR sort gate)” value is “low polyreactivity”.

With “QVQLVESGGGLVQAGGSLRLSCAASGGTYHANAMGWYRQAPGKERELVAGITSGGSTYYADSVKGRFTISRDNAKNTVYLQMNSLKPEDTAVYYCNARYPLNIIRGFVWWTVGHDYWGQGTQVTVSS”, the “polyreactivity (PSR sort gate)” value was “low polyreactivity”.

With “QVQLVESGGGLVQAGGSLRLSCAASGGTYRVKAMGWYRQAPGKEREFVAAISGSGSSTYYADSVKGRFTISRDNAKNTVYLQMNSLKPEDTAVYYCAARSCVGGDNDYWGQGTQVTVSS”, the “polyreactivity (PSR sort gate)” value is listed as “low polyreactivity”.

Regarding “QVQLVESGGGLVQAGGSLRLSCAASGHIFFYYTMGWYRQAPGKERELVAGITIGGSTNYADSVKGRFTISRDNAKNTVYLQMNSLKPEDTAVYYCNVVNYVYIYSYWEYYYWGQGTQVTVSS”, the “polyreactivity (PSR sort gate)” value is recorded as “low polyreactivity”.

In the case of “QVQLVESGGGLVQAGGSLRLSCAASGHIFNYYAMGWYRQAPGKERELVAAIRSGARTSYADSVKGRFTISRDNAKNTVNLQMNSLKPEDTAVYYCAAVGVAYLYPSDYWGQGTQVPVSS”, the “polyreactivity (PSR sort gate)” value is on record as “high polyreactivity”.

On to “QVQLVESGGGLVQAGGSLRLSCAASGHTFYYYTMGWYRQAPGKERELVASIRNGGNTNYADSVKGRFTISRDTAKNTVYLQMHSLKPEDTAVYYCAAVFGWSYITAYDWGQGTQVTVSS”, for which the “polyreactivity (PSR sort gate)” value is recorded as “high polyreactivity”.

As to “QVQLVESGGGLVQAGGSLRLSCAASGHTYRYYAMGWYRQAPGKERELVAAITGGGGSTYYADSVKGRFTISRDNAKNTVYLQMNSLKPEDTAVYYCATGGVSGIVGGDYWGQGTQVTVSS”, the “polyreactivity (PSR sort gate)” value is “low polyreactivity”.

As to “QVQLVESGGGLVQAGGSLRLSCAASGIAYTYNAMGRYRQAPGKERELVASISRTGGSTRYADSVKGRFTISRDNAKYTVYLQMNSLKPEDTAVYYCAALSWRYVKYRFDYWGQGTQVTVSS”, the “polyreactivity (PSR sort gate)” value is “high polyreactivity”.

As for “QVQLVESGGGLVQAGGSLRLSCAASGIFASYAMGWYRQAPGKERELVAAIRSSGGRTYYADSVKGRFTISRDNAKNTFYLQMNSLKPEDTAVYYCAARYYTYDGYSKYDFWGQGTQVTVSS”, the “polyreactivity (PSR sort gate)” value is given as “high polyreactivity”.

Turning to “QVQLVESGGGLVQAGGSLRLSCAASGIFAWNAMGWYRQAPGKERELVAAISWSGGSTYADSVKGRFTISRDNAKNTVYLQMNSLKPEDTAVYYCAKVSSLTSKSDYWGQGTQVTVSS”, the “polyreactivity (PSR sort gate)” value is “low polyreactivity”.

Consider “QVQLVESGGGLVQAGGSLRLSCAASGIFDPNAMGWYRQAPGKERELVAAITSGGSTNYADSVKGRFTISRDNAKNTVYLQMNSLKPVDTAVYYCNADSYDEIKYGYWGQGTQVTVSS”, for which the “polyreactivity (PSR sort gate)” value was “low polyreactivity”.

Regarding “QVQLVESGGGLVQAGGSLRLSCAASGIFDRYAMGWYRQAPGKERELVAAISYNAGSTYYADSVKGRFTISRDNAKNTVYLQMNSLKPEDTAVYYCAARGFGTVNGKLYGYWGQGTQVTVSS”, the “polyreactivity (PSR sort gate)” value is given as “high polyreactivity”.

In the case of “QVQLVESGGGLVQAGGSLRLSCAASGIFDYYVMGWYIQAPGKERELVAAISKSVGSTYYADSVKGRFTISRDNAKNTVYLQMNSLKPEDTAVYYCAVENRYRFGYWGQGTQVTVSS”, the “polyreactivity (PSR sort gate)” value is given as “low polyreactivity”.

“QVQLVESGGGLVQAGGSLRLSCAASGIFFQQYAMGWYRLAPGKERELVAAISRGGTRTYYADSVKGRFTISRDNAKNTGYLQMNSLKPEDTAVYYCAADRGYVSYDYWGQGTQVTVSS”: the “polyreactivity (PSR sort gate)” value is reported as “high polyreactivity”.

In the case of “QVQLVESGGGLVQAGGSLRLSCAASGIFGGYAMGWYRQAPGKERELVAAIRYSSGSTYYADSVKGRFTISRDNAKNTVYLQMKSLKPEDTAVYYCAAEVVEAPDNDYWGQGTQVTVSS”, the “polyreactivity (PSR sort gate)” value is on record as “low polyreactivity”.

Regarding “QVQLVESGGGLVQAGGSLRLSCAASGIFGGYAMGWYRQAPGKERELVAAISYSGGTTYYADSVKGRFTISRDNAKNTVYLQMNSLKPEDTAVYYCNADDPDYLVSYRYDYWGQGTQVTVSS”, the “polyreactivity (PSR sort gate)” value is reported as “low polyreactivity”.

With “QVQLVESGGGLVQAGGSLRLSCAASGIFLVYAMGWYRQAPGKERELVAAIRSDASTNYADSVKGRFTISRDNAKNTVYLQMNILKPEDTAVYYCNTAQLVSDEFDYWGQGTQVTVSS”, the “polyreactivity (PSR sort gate)” value was “low polyreactivity”.

For “QVQLVESGGGLVQAGGSLRLSCAASGIFPWFAMGWYRQAPGKERELVAVITGGDSTNYADSVKGRFTISRDNAKNTVYLQMNSLKPEDTAVYYCAARNTGPVQYYYWGQGTQVTVSS”, the “polyreactivity (PSR sort gate)” value is recorded as “low polyreactivity”.

As to “QVQLVESGGGLVQAGGSLRLSCAASGIFRSNAMGWYRQAPGKERELVAGISSGGGTNYADSVKGRFTISRDNAKNTVYLQMNSLKPDDTAVYYCAKERIYFYYWYVYTDLVYEYDYWGQGTQVTVSS”, the “polyreactivity (PSR sort gate)” value is on record as “low polyreactivity”.

As for “QVQLVESGGGLVQAGGSLRLSCAASGIFSYYAMGWYRQAPGKERELVATISRRGSSTYYADSVKGRFTISRDNAKNTVYLQMNSLKPEDTAVYYCNADIGWGRFSQSFDYWGQGTQVTVSS”, the “polyreactivity (PSR sort gate)” value is “low polyreactivity”.

For the sequence “QVQLVESGGGLVQAGGSLRLSCAASGIIFAGNAMGWYRQAPGKEREFVAAISYRGGTTYYADSVKGRFTISRDNAKNTVYLQMNSLKPEDTAVYYCAADPRSKGFYYGYDYWGQGTQGTVSS”, the “polyreactivity (PSR sort gate)” value is recorded as “high polyreactivity”.

With “QVQLVESGGGLVQAGGSLRLSCAASGIIFAGNAMGWYRQAPGKERELVAAISSGTTTNYADSVKGRFTISRDNAKNTVYLQMNRLKPEDTAVYYCAADDFPYKSDYWGQGTHVTVSS”, the “polyreactivity (PSR sort gate)” value is “low polyreactivity”.

For the origin of these results see the nanobody polyreactivity screen of Harvey et al. (2022).
